Columns and labels:
[1] = tested on: human iPS cells; assay: Differentiation of human iPS cells to definitive endoderm (DE), flow cytometry at day 5; type: cell-based
Description: iPS cells were first differentiated towards definitive endoderm (DE). DE cells were initiated under conditions described previously. Briefly, iPS cells were cultured in RPMI 1640 medium supplemented with 100 ng/ml activin A, 2 mM L-glutamine and 1% antibiotic-antimycotic for 48 hours. Then, 1×B27 supplement and 0.5 mM sodium butyrate were added into the same medium and iPS cells were cultured in this medium for 3 days with daily medium changes.
(§1) For flow cytometry, cells were fixed with the fixation solution from the Fixation/Permeabilization kit (BD Biosciences), and stained with primary and detection antibodies as described by the manufacturer. Briefly cells were dissociated into single-cell suspensions by incubation with 0.25% trypsin for 2 min. The dissociated cells were resuspended (0.5×10^6 cells) in 250 μl of fixation/permeabilization solution, kept on ice for 20 min, and washed twice with Perm/Wash buffer. After blocking with blocking solution for 30 min on ice, the cells were incubated with corresponding primary antibody in the blocking solution for 30 min on ice. The cells were resuspended in 350 μl of Perm/Wash buffer after incubation with corresponding conjugated secondary for 30 min on ice, washed twice, and analyzed by flow cytometry.
Human iPS cells were differentiated to DE cells using serum free conditions (FIG. 1). By exposing iPS cells to saturating concentrations of activin A, greater than 85% endodermal cells were generated. […] 89% of cells were positive for c-kit (FIG. 2A), 91% positive for SOX17 (FIG. 2C), 93% positive for FOXA2 (FIG. 2B), and 88% of the cells expressed the endoderm surface marker CXCR4 (FIG. 2D) in clone C1.

[2] = tested on: iPS cell-derived DE cells; assay: Anterior foregut endoderm (AFE) differentiation of DE cells, FOXA2+SOX2+ cells by flow cytometry; type: cell-based, human; settings: day 7, flow cytometry, FIG. 3A
Description: (§2) Subsequently, the DE cells were trypsinized and replated on human ECM protein coated plates and were differentiated to anterior foregut endoderm (AFE) by exposing them sequentially between days d5 to d7 to combinations of the small molecule inhibitors in IMDM with 10% FBS, 2 mM L-glutamine, 1 mM nonessential amino acids, 1% antibiotic-antimycotic.
as §1, with “After blocking with blocking solution for 30 min on ice, the cells were incubated with corresponding primary antibody in the blocking solution for 30 min on ice.” left out, “cytometry. […]” for “cytometry.”
BMP4 signaling is required for lung specification and an increase in bFGF and WNT concentration increases NKX2.1^+immature lung progenitors. […] The numbers of cells double positive for FOXA2^+SOX2^+anterior endoderm cells were quantified out of the total FOXA2^+endoderm cells by flow cytometry.

[3] = tested on: iPS cell-derived DE cells; assay: Lung endoderm specification of DE cells, NKX2.1+ and NKX2.1+FOXA2+ cells; type: cell-based, human; settings: FIG. 3B
Description: as §2
Then AFE cells were maintained in lung endoderm differentiation medium consisting of IMDM with 20% FBS, 2 mM L-glutamine, 1 mM nonessential amino acids, 1% antibiotic-antimycotic, retinoic acid (0.5 μM), bFGF (10 ng/ml), BMP4 (10 ng/ml), Wnt3a (100 ng/ml), and KGF (10 ng/ml each) for 5 days. […]
For flow cytometry, cells were fixed with the fixation solution from the Fixation/Permeabilization kit (BD Biosciences), and stained with primary and detection antibodies as described by the manufacturer. […] The cells were resuspended in 350 μl of Perm/Wash buffer after incubation with corresponding conjugated secondary for 30 min on ice, washed twice, and analyzed by flow cytometry.
NKX2.1^+is the earliest marker of cells that distinguish future lung from other derivatives of the foregut endoderm. […] The percentages of NKX2.1^+ cells were quantified as percentages of the total cells present. […]

[4] = day 5, flow cytometry, clone C1

B1: activin A (protein, UniProt P08476 311-426, looked up)
Inhibin beta A chain: GLECDGKVNICCKKQFFVSFKDIGWNDWIIAPSGYHANYCEGECPSHIAGTSGSSLSFHSTVINHYRMRGHSPFANLKSCCVPTKLRPMSMLYYDDGQNIIKKDIQNMIVEECGCS
modifications: Inhibin beta A chain
notes: agent that induces differentiation of iPS cells to definitive endoderm cells
- cells expressing endoderm surface marker CXCR4 [1, 4]: 88%
- cells positive for FOXA2 [1, 4]: 93%
- cells positive for SOX17 [1, 4]: 91%
- cells positive for c-kit [1, 4]: 89%
- endodermal cells generated ([1]; saturating concentrations of activin A, serum free conditions): greater than 85%
- number of FOXA2+SOX2+ anterior endoderm cells out of total FOXA2+ endoderm cells [2]: rare
- number of NKX2.1+ cells (percentage of total cells) [3]: few

Reference: patent US20260265697A1, “COMPOSITIONS AND METHODS OF PREPARING AIRWAY CELLS” (Yale University, priority 2014, published 2026)
